In patent US10106589B2, “Compositions and methods for immunomodulation” (FUNDACIO INSTITUT D'INVESTIGACIO BIOMEDICA DE BELLVITGE …, priority 2011, dated 2018):

B1: C4BP α7β1: major C4BP isoform, 7 identical α-chains and 1 β-chain, purified from pooled human plasma (protein, UniProt P04003 49-597; P20851 18-252, looked up)
C4b-binding protein alpha …: NCGPPPTLSFAAPMDITLTETRFKTGTTLKYTCLPGYVRSHSTQTLTCNSDGEWVYNTFCIYKRCRHPGELRNGQVEIKTDLSFGSQIEFSCSEGFFLIGSTTSRCEVQDRGVGWSHPLPQCEIVKCKPPPDIRNGRHSGEENFYAYGFSVTYSCDPRFSLLGHASISCTVENETIGVWRPSPPTCEKITCRKPDVSHGEMVSGFGPIYNYKDTIVFKCQKGFVLRGSSVIHCDADSKWNPSPPACEPNSCINLPDIPHASWETYPRPTKEDVYVVGTVLRYRCHPGYKPTTDEPTTVICQKNLRWTPYQGCEALCCPEPKLNNGEITQHRKSRPANHCVYFYGDEISFSCHETSRFSAICQGDGTWSPRTPSCGDICNFPPKIAHGHYKQSSSYSFFKEEIIYECDKGYILVGQAKLSCSYSHWSAPAPQCKALCRKPELVNGRLSVDKDQYVEPENVTIQCDSGYGVVGPQSITCSGNRTWYPEVPKCEWETPEGCEQVLTGKRLMQCLPNPEDVKMALEVYKLSLEIEQLELQRDSARQSTLDKEL
C4b-binding protein beta chain: SDAEHCPELPPVDNSIFVAKEVEGQILGTYVCIKGYHLVGKKTLFCNASKEWDNTTTECRLGHCPDPVLVNGEFSSSGPVNVSDKITFMCNDHYILKGSNRSQCLEDHTWAPPFPICKSRDCDPPGNPVHGYFEGNNFTLGSTISYYCEDRYYLVGVQEQQCVDGEWSSALPVCKLIQEAPKPECEKALLAFQESKNLCEAMENFMQQLKESGMTMEELKYSLELKKAELKAKLL
B2: C4BP (β^−): C4BP isoforms lacking beta chain: C4BP (α7β0) or C4BP (α6β0) (protein, UniProt P04003 49-597, looked up)
C4b-binding protein alpha …: B1 C4b-binding protein alpha …

Experiments:
[1] = tested on: human Mo-DCs; experiment: Quantitative RT-PCR of CCR7, IDO, BIC-1, SOD2 in Mo-DCs; assay type: cell-based; design: key to IDO / BIC-1: (−) negligible; (+) low; (++) moderate; (+++) high
Experimental: Mo-DCs (10^6/condition) were harvested at day 7 and the mRNA was extracted using the RNeasy RNA Isolation kit (Qiagen) and incubated with RNase-free DNase I (Ambion, Austin, Tex.) according to the manufacturer's protocol. A two-step real-time RT-PCR technique was used to determine the relative mRNA levels of human CCR7, BIC-1, IDO and SOD2. Reverse transcription reactions were performed with 500 ng of total RNA using the Omniscript RT kit (Qiagen). Quantification of mRNA levels was performed by real-time polymerase chain reaction (PCR) with the use of the LightCycler technology (Roche Molecular Biochemicals, Indianapolis, Ind.). The following primers were used: CCR7-f (5′-TGGGCATCTGGATACTAGC-3′) (SEQ ID NO:6), CCR7-r (5′-AAGAAAGGGTTGACGCAGC-3′) (SEQ ID NO:7); IDO-f (5′-[…]-3′) (SEQ ID NO:8); IDO-r (5′-[…]-3′) (SEQ ID NO:9); BIC-1-f (5′-[…]-3′) (SEQ ID NO:10), BIC-1-r (5′-[…]-3′) (SEQ ID NO:11); SOD2-f (5′-GACAAACCTCAGCCCTAAC-3′) (SEQ ID NO:12), SOD2-r (5′-[…]-3′) (SEQ ID NO:13), yielding products of 435, 227, 296 bp, and 248 bp, respectively. These gene-specific primer pairs were designed using Oligo 4.0 and Primer 3 software packages (MBI, Cascade, Colo.) and selected to prevent primer-dimer formation.
All samples were normalized with the use of the following primer set for the constitutively expressed human cyclophilin gene: CypA-f (5′-[…]-3′) (SEQ ID NO:14) and CypA-r (5′-CACCACATGCTTGCCATCC-3′) (SEQ ID NO:15) (Pluvinet R. et al., 2004, Blood. 104: 3642-3646). All primers were purchased from Bonsai Technologies (Copenhagen, Denmark).
PCR amplifications were performed in a 20 μl volume containing 2 μl ready-to-use reaction mix, 10×DNA Master SYBR Green I (Roche Molecular Biochemicals); MgCl2 (3 mM for CCR7; 4 mM for BIC-1 and SOD2, and 5 mM for IDO); 0.15 μM of each primer; 5% dimethyl sulfoxide (DMSO); and 75 ng cDNA as template. The amplification program used an initial denaturation at 95° C. for 10 min, followed by 45 cycles: 95° C. for 1 sec; 58° C. (CCR7 and SOD2)/60° C. (BIC-1 and IDO) for 5 sec; 72° C. for 10 sec.

[2] = tested on: human Mo-DCs; experiment: Chemotaxis transwell assay towards CCL21; assay type: cell-based; design: key to Chemotaxis (CCL21): (−) negligible; (+) low; (++) moderate; (+++) high; conditions: for migration of LPS-matured Mo-DCs towards the chemokine CCL21: transwell, 2 h
Experimental: Mo-DCs differentiated and matured (LPS for 48 h) in presence of the C4BP isoforms α7β1, α7β0, or Factor H, were tested for migration toward the CCL21 chemokine using transwell assays. Briefly, the lower chambers of transwell plates (polycarbonate filters of 8.0 μm pore size; Costar, Corning, N.Y.) were filled with 400 μl of complete RPMI with or without CCL21 (200 ng/ml). A total of 1×10^5 DCs in 100 μl of complete RPMI were added into the upper chamber, and cells were incubated at 37° C. for 2 h. Cells migrated into the lower chambers were harvested and counted with a FACScalibur flow cytometer acquiring events for a fixed time period of 2 min using CellQuest software (Becton Dickinson). The migration assays for all stimulation conditions were performed in duplicate wells. Values are given as percentage of migrated cells relative to the untreated, mDCs (100%).

[3] = tested on: human Mo-DCs; experiment: Apoptosis determination (Annexin V / 7-ADD); assay type: cell-based; design: key: (−) negligible; (+) low; (++) moderate; (+++) high; conditions: viability; treated and LPS-induced DCs
Description: Double staining using with the fluorescent dyes Annexin V (Annexin V-PE Apoptosis Detection Kit I, BD Pharmigen, San Diego, Calif.) and 7-amino-actinomycin D (7-ADD) (BD Pharmigen), and flow cytometry analysis, was employed to assess the viability/apoptosis status of C4BP α7β1-, C4BP α7β0-, recC4BP α6β0-, or Factor H-treated and untreated Mo-DCs.

[4] = tested on: LPS-matured DCs; experiment: Phenotype stability after re-stimulation with TNF-alpha+IFN-gamma; assay type: cell-based, human; conditions: TNF-alpha+IFN-gamma for 24 h without immunomodulatory agents
Experimental: The stability of C4BP(β−)- or FH-treated and LPS-matured DCs was evaluated after further 24 h of induction with pro-inflammatory TNF-alpha (100 U/ml)+IFN-gamma (1000 U/ml) in complete medium without immunomodulatory agents (C4BP(β−) or FH). Median fluorescence intensities (MIF) of DC markers CD83 (A) and CD86 (B) were determined for all DC conditions (with or without TNF-alpha+IFN-gamma). iDC, immature DCs; mDC, untreated LPS-matured DCs; B-5, C4BP(β−)-treated (5 μg/ml) and LPS-matured DCs; WT5, C4BP(β+)-treated (5 μg/ml) and LPS-matured DCs; Rec2, recombinant C4BP(β−)-treated (2 μg/ml) and LPS-matured DCs; FH5, FH-treated (5 μg/ml) and LPS-matured DCs (n=6 per group).
Due to their potential use in the clinical setting, we aimed to study whether an ulterior activation of C4BP(β−)- or FH-treated and LPS-matured DCs would modify the phenotype of these tolerogenic DCs. Therefore, both untreated and C4BP(β−)- or FH-treated DCs were matured with LPS, as previously mentioned, and then re-stimulated without immunomodulatory agents (C4BP(β−) or FH) using TNF-alpha+IFN-gamma for 24 h. […] These tolerogenic C4BP(β−)- or FH-treated DCs were thus phenotypically refractory to secondary stimulation, confirming their stable non-proinflammatory profile.

[5] = tested on: CD3+ T lymphocytes; experiment: Determination of CD4+ CD127low/negative CD25high Foxp3+ T cells; assay type: cell-based, human; conditions: T cells stimulated 6 days with treated, LPS-matured DCs
Experimental: CD3^+ T lymphocytes were purified from mononuclear cells by negative selection using an EasySep® Human T Cell Enrichment Kit (StemCell Technologies) following the manufacturer's instructions. Purity was >95% in all experiments. Enriched T cells were plated (10^5 cells/well) in 96-well round-bottom plates. […] Stained cells were analysed using a FACSCanto II (Becton Dickinson) and the results were analysed using FlowJo software (Tree Star, Inc, OR, USA).

[6] = transcriptional profile, treated and LPS-induced DCs

Row | Molecule | CCR7 transcript level ([1]; RT-qPCR, pretreated, LPS-matured Mo-DCs) | migration of LPS-matured Mo-DCs towards the chemokine CCL21 [2] | BIC-1 [1, 6] | IDO [1, 6] | Apoptosis after treatment [3] | Chemotaxis (CCL21) ([2]; functional assay, treated and LPS-induced DCs) | DC phenotype regarding the CD83 and CD86 markers after re-stimulation [4] | DC viability after re-stimulation ([4]; not shown) | percentage of CD4+Foxp3+ and CD25^high, CD127^low/negative cells [5]
1 | B1 | but not with C4BP α7β1, significantly down-regulated | maximal migration |  |  |  |  |  |  | 
2 | B2 |  | halted the migration | + | − | − | − | did not induce significant changes | did not induce significant changes | significant increase
